This note sets out measurements from patent US9199028B2, “Use of entrained neutrophils to treat metastatic and micrometastatic disease in at risk patients” (MEMORIAL SLOAN-KETTERING CANCER CENTER, priority 2010, dated 2015).

The experiment relates to 4T1 cells. The experiment in a line: In vitro killing assay: naïve mouse neutrophils co-cultured with luciferase labelled 4T1 cells in the presence of chemokines. It counts as cell-based. To be noted: naïve mouse neutrophils co-cultured with 4T1 cells, chemokine 20 ng/ml, overnight. The text has this: Antibodies used for immunohistochemistry—MMP9, F4/80 and CCR2 (all from AbCam), Myeloperoxidase (Dako), Ly-6G and Cd11b (both from BD), and Cleaved Caspase 3 (Cell signalling). Antibodies used for western blotting—Actin (Sigma), CCL2 (AbCam) and CCL5 (R&D) p-SMAD2 (cell signalling). Antibodies used for FACS analysis FITC-Ly-6G, FITC-Cd11b, FITC-F4/80, FITC-Cd34 and FITC-c-Kit (all from BD) and VEGFR1-AP (R&D). Neutrophil Depletion Neutrophil depletion was achieved using daily IP injections of 12.5 μg Rat anti-Gr-1 antibody (BD) or Rat anti-Ly-6G antibody (BD) starting on day 3 post tumour engraftment. Starting on day 14, neutrophil depleting antibodies were administered twice daily. Control mice were injected with […] Rat isotype control (BD). Neutrophil depletion was monitored by manual blood differentials and FACS analysis. Flow Cytometry Peripheral blood was collected into EDTA-coated tubes, washed and resuspended in FACS buffer solution (PBS, 2% heat-inactivated FCS, 5 mM EDTA, and 0.02% sodium azide). The samples were blocked with […] and then incubated with fluorophore-conjugated antibodies. Erythrocytes were then lysed with FACS lysing solution (BD Biosciences) and the cell suspensions were analyzed on a FACSCalibur (BD Biosciences). Colony Formation Assay Female nude mice were orthotopically injected with 5×10^6 puromicin resistant 4T1 cells. On days 7 and 14 post tumour engraftment the mice were sacrificed and perfused with PBS. The lungs and livers were removed, washed with PBS and dissociated with Collagenase A (Roche). The single cell suspension was then plated onto puromicin containing media and selected for 14 day. Colonies were stained with Methylene-Blue and counted manually. Mouse Neutrophil Purification Whole blood was collected by cardiac puncture using heparinized (Sigma) syringe. The blood was diluted with 5 volumes of PBS containing 0.5% BSA and subjected to a discontinuous Histopaque (Sigma) gradient (1.077 and 1.119). Neutrophils were collected from the 1.077-1.119 interface, lymphocytes and monocytes collected from the plasma-1.077 interface. RBCs were eliminated by hypotonic lysis. The cells were washed twice with PBS-BSA and re-suspended in OptiMEM (Invitrogen) 0.5% FBS in a final concentration of 2×10^6 cells/ml. Neutrophil purity and viability were determined visually and were consistently >98%. Human Neutrophil Purification As part of a Memorial Sloan-Kettering Cancer Center institutionally approved protocol, blood samples (˜10 cc) were collected from healthy volunteers or from patients who were already having blood drawn for pre-surgical testing. Patients were consented accordingly as part of the approved protocol. […] Patients had either mastectomies or lumpectomies planned and had blood drawn prior to definitive surgical removal of their primary tumor or chemotherapy. Blood samples were transferred to the lab for analysis no more than 1 hour post-blood draw. Heparinzed blood (20 U/ml final) was mixed with an equal volume of Dextran 500 (3% in saline) and incubated 30 minutes at room temperature. The leukocyte-rich supernatant was layered on top of histopaque 1077 (Sigma) and centrifuged. Neutrophils, collected in the pellet fraction, were resuspended in 10 ml 0.2% NaCl for 30 seconds to remove contaminating erythrocytes. Isotonicity was restored by the addition of 10 ml 1.6% NaCl. Neutrophils were than washed three times in Hanks's balanced salt solution and resuspended in RPMI+FCS2%. In vitro Killing Assay Luciferase labelled cells (5,000/well) were plated on a 96-well, flat bottom white polystyrene tissue culture plate in OptiMEM 0.5% FBS (mouse neutrophils) or RPMI 2% FBS (human neutrophils). 4 hours later, purified neutrophils (100,000/well for mouse neutrophils and 5000 for human neutrophils) were added to the plated tumour cells and co-cultured overnight. […]

“Also recorded” adds a separate entry of the source.

B1: rhG-CSF: recombinant methionyl human granulocyte colony-stimulating factor (Neupogen, Amgen) (protein, chains of the INN, looked up)
chain: MTPLGPASSLPQSFLLKCLEQVRKIQGDGAALQEKLCATYKLCHPEELVLLGHSLGIPWAPLSSCPSQALQLAGCLSQLHSGLFLYQGLLQALEGISPELGPTLDTLQLDVADFATTIWQQMEELGMAPALQPTQGAMPAFASAFQRRAGGVLVASHLQSFLEVSYRVLRHLAQP
modifications: N-terminal methionine
In the case of B1, the “neutrophil mediated killing of 4T1 cells (tumor cell viability by luciferase activity)” value was “does not induce neutrophil mediated cell killing; also recorded: does not induce a cytotoxic neutrophil response; also recorded: did not induce a cytotoxic neutrophil response in vitro”. Moreover, for the setting “listed as G-CSF”, the “neutrophil mediated killing of 4T1 cells (tumor cell viability by luciferase activity)” value is given as “no significant effect on tumor-cell viability”.
